2 sequences from article PMC12934148 can be followed below.

The test system of series [1] is Cas10-Csm K524E (Staphylococcus epidermidis). The series can be described thus: fluorescence polarization. As to conditions: no Mg2+, 1 mM EDTA, Kd only in Fig 8B, 50 mM Tris-HCl pH 8.0, 400 mM NH4Cl, 5% v/v glycerol, 0.025% w/v BSA, 10 nM RNA, 2 h at room temperature. (Polarisation of emitted light reports the rotation of a fluorescent probe.)
Series [2] relates to Cas10-Csm R754E (Staphylococcus epidermidis). Briefly: fluorescence polarization. As to conditions: no Mg2+, 1 mM EDTA, Kd only in Fig 8B, 50 mM Tris-HCl pH 8.0, 400 mM NH4Cl, 5% v/v glycerol, 0.025% w/v BSA, 10 nM RNA, 2 h at room temperature.

For “CUUUGUACUGAUGAUUUAUAUACAAGCCGAUACGUUCUCUAAA [pmRNA01-FMM2 (Nes target, segment 2 mismatch)]”, the values for the binding signal (fold Kd vs same mutant on cognate) in series [1] and in series [2] were 2.7 and 1.6, respectively.
Consider “CUUUGUACUGAUGAUUUAUAUACUUCGGCAUACGUUCUCUAAA [pmRNA01-F (Nes cognate target)]”, for which the binding signal (fold Kd vs wild type on cognate) was found to be 1.8 in series [1] and 2.8 in series [2].
